Assay results published in US20240165208A1, “Mutant KRAS-Targeting Peptide and Use Thereof” (GJMEDI INC., priority 2020, published 2024).
No end group written: not given here.

B1: anticancer peptide GJ101 (peptide)
peptide: LYDVA
notes: Synthesised by solid phase peptide synthesis and purified by RP-HPLC to 95% or more; said to consist of 5 amino acids and to be derived from H-REV107; also called mutant KRAS-targeting anticancer peptide

Key:
[1] = body weight and general condition in cancer animal model; type: in vivo; conditions: GJ101 25 mg/kg or 50 mg/kg
Experimental: To prepare a cancer animal model, AsPC-1 cells as a pancreatic cancer cell line were prepared by dissociation in a Hanks' balanced salt solution (HBSS) and a materigel. The prepared AsPC-1 cells were transplanted into the right flank of a nude mouse at an amount of 2×10^6 cells/10 μL/animal to prepare a cancer animal model.
For an experiments to be described later, the anticancer peptide GJ101 was administered at a concentration of 25 mg/kg or 50 mg/kg from day 16 after the preparation of the cancer animal model. In addition, a control group (Vehicle) was treated with 10% DMSO, 40% PEG400, and 50% DW.
A drug was administered to a cancer animal model, and then the body weight of the individual was measured once a day, and the result were illustrated in FIG. 6.

[2] = tested on: AsPC-1 cells; type: cell-based; conditions: 48 h
Experimental: Through 3-(4,5-dimethylthiazol-2-yl)-2,5-diphenyltetrazolium bromide (MTT) analysis, an effect of the anticancer peptide GJ101 on the cell viability of cancer cells was examined. For the cell viability analysis, AsPC-1 cells as a pancreatic cancer cell line were used. The pancreatic cancer cell line was prepared by dispensing the pancreatic cancer cell line at 1×10^3 cells/well (100 μL) and adhering thereto. To treat the anticancer peptide GJ101, the medium of the cells was replaced with a new medium (RPMI-1640). The pancreatic cancer cell lines with different adhering times were treated with the anticancer peptide GJ101 while increasing a concentration gradient, respectively. The pancreatic cancer cells treated with the anticancer peptide GJ101 were incubated for 24 or 48 hours, respectively. Each incubated pancreatic cancer cell was added with an MTT solution (5 mg/mL) and incubated for 90 minutes. After the end of the incubation, an optical density (OD) of pancreatic cancer cells was measured at 540 nm using a microplate reader (Molecular Devices, USA), and a maximum concentration (GI50) at which the growth of pancreatic cancer cells was reduced by half was confirmed. The result of examining the effect of the anticancer peptide GJ101 on the cell viability of tumor cells was illustrated in FIG. 5.

[3] = molecular target: T1, KRAS G12V protein (UniProt P01116-2 1-188, limits assumed); experiment: ITC, calculated from K and ΔH
T1 construct: also called mutant KRAS G12V; mutant Kirsten-RAS
Experimental: (§1) In order to examine the affinity of the anticancer peptide GJ101 to the KRAS G12V protein, isothermal titration heat was measured using isothermal titration calorimetry (ITC). Specifically, the KRAS G12V protein was prepared by dialysis with a buffer [20 mM Tris-HCl (pH 7.4), 100 mM NaCl, and 2 mM MgCl₂] so that the final concentration of the KRAS G12V protein was 0.1 mM. Next, the anticancer peptide GJ101 was prepared by diluting the anticancer peptide GJ101 to a concentration of 1.0 mM using the same buffer as described above. Isothermal titration heat measurement was performed by injecting the prepared KRAS G12V protein and anticancer peptide GJ101 into isothermal titration calorimetry. In the isothermal titration heat measurement, the anticancer peptide GJ101 was injected 20 times at 25° C. while stirring at a rate of 1,000 rpm. ΔS was calculated from a standard thermodynamic equation using the calculated K and ΔH values. The results of isothermal titration calorimetry were illustrated in FIG. 3.

[4] = molecular target: T1, KRAS G12V protein; experiment: ITC, GJ101 (1.0 mM) injected into KRAS G12V (0.1 mM), 25 °C
Experimental: as §1

Row | Molecule | moribund state or behavioral abnormalities [1] | GI50 [2] [µM] | ΔS [3] [cal/mol/deg] | Ka [4] [M⁻¹] | Kd [4] [µM] | ΔH [4] [cal/mol]
1 | LYDVA [GJ101] | not observed | 16 | – | – | – | –
2 | B1 | – | – | 19.3 | 86500 | 12 | -994
